Numbering of substitutions follows the chain as printed. Names and notes keep the numbering of the source.
Experiments:
[1] = target: T1, Sac1 (phosphatase domain of yeast Sac1, residues 1-511) (Saccharomyces cerevisiae, UniProt P32368); experiment: malachite green phosphate release, PI; assay type: biochemical; details: fixed PI(4)P, pH 6.8, room temperature; allosteric activator
T1 sequence (P32368 1-511): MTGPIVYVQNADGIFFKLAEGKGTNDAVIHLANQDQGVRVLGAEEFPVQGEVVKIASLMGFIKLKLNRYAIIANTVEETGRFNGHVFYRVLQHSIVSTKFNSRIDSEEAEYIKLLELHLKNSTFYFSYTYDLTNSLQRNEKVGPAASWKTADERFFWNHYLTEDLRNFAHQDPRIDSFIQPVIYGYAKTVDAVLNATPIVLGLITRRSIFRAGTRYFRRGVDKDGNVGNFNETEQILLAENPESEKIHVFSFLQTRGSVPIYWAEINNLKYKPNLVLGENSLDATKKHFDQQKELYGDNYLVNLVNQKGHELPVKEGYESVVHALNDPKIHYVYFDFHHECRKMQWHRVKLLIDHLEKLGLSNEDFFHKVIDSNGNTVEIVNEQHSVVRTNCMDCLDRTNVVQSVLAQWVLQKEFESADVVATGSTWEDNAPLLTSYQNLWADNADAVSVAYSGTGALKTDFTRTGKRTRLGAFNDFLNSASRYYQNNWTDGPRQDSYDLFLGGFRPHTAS

[2] = target: yeast Sac1 phosphatase domain (amino acids 1-511) (yeast) (UniProt P32368); experiment: AUC
purified protein = substrate: CCCCCCCC(=O)OC[C@H](COP(=O)(O)O[C@H]1[C@H](O)[C@@H](O)[C@H](OP(=O)(O)O)[C@@H](O)[C@H]1O)OC(=O)CCCCCCC; experiment: purified protein; details: no activator; sigmoidal, Hill coefficient 3.6 ± 0.3; buffer as for wild type

## CCCCCCCC(=O)OC[C@H](COP(=O)(O)OC[C@H](N)C(=O)O)OC(=O)CCCCCCC [diC8 PS]
[1]
  activation: Sac1 is strongly activated by phosphatidylserine (PS)

## yeast Sac1 phosphatase domain (amino acids 1-511) (from UniProt P32368 1-511) (domain or fragment)
[2]
  percent of the protein in the dimeric form: 20%
  stoichiometry N: 2

B1: Sac1 (phosphatase domain of yeast Sac1, residues 1-511) (Saccharomyces cerevisiae S288C; R207Q) (protein)
chain: T1 sequence (P32368 1-511) with R207Q
Purified protein
  K0.5: 46 ± 5 µM
